Experimental data taken from patent US20230144459A1, “SHEDDING BLOCKING AGENTS WITH INCREASED STABILITY” (BIOND BIOLOGICS LTD., priority 2020, published 2023).

Columns and labels:
[1] = target: T1, human CD28 stalk region dimeric peptide (Homo sapiens, UniProt P10747); assay: CD28 stalk region binding assay (ELISA), wild-type peptide; details: serial dilution ELISA
T1 construct: purchased Genecust Europe (custom synthesis, stated for the tagged peptide); host or cells: synthetic peptide

CD28 shedding in PBMC = target: T2, CD28 shedding in PBMC (Homo sapiens, UniProt P10747); assay: CD28 shedding in PBMC activated by superantigen (SEB); format: cell-based; details: 1 ng/mL SEB; 0.4-50 μg/mL
T2 construct: endogenous in cells; host or cells: CD4 T cells and PBMCs from fresh blood of healthy donors
Protocol: FIG. 9. […] Levels of soluble CD28 were measured in culture media of isolated PBMC stimulated with 1 ng/mL SEB (light grey bar). […] The levels of soluble human CD28 in the supernatant were quantified with standardized sandwich ELISA (R&D system).
Cellular assays evaluating anti shedding activity of VHH—For SEB activation of PBMCs, 0.1×10^6 PBMCs were stimulated with […] SEB (Sigma, Cat. No. S4881) for 5-7 days at 37° C. with/without the indicated concentrations of various treatments in 96 well plates. For PHA activated T cells, 0.1×10^6 CD4 T cells were incubated with the indicated concentration of Phytohemagglutinin (Sigma, Cat. No. L8902) and 200 IU/mL of IL-2 (Proleukine) for 5-7 days at 37° C. with/without the indicated concentrations of various treatments in 96 well plates. For HEK spontaneous CD28 shedding assay, 0.1×10^5 HEK cells were incubated for 48 hours at 37° C. with/without the indicated concentrations of various treatments in 96 well plates.

[2] = target: T3, CD28 shedding in HEK cells overexpressing human CD28 (Homo sapiens, UniProt P10747); assay: HEK spontaneous CD28 shedding assay; format: cell-based; details: 48 hr, 3.3-100 μg/mL
T3 construct: HEK293 cells overexpressing human full-length CD28 were analyzed; expressed in transfected cells

[3] = target: T4, CD28 shedding in isolated human CD4 T cells (Homo sapiens, UniProt P10747); assay: CD28 shedding in isolated CD4 T cells activated by PHA and IL2; format: cell-based; details: 5 μg/mL PHA, 200 IU/mL IL-2; 0.4-50 μg/mL
T4 construct: endogenous in cells; host or cells: CD4 T cells and PBMCs from fresh blood of healthy donors

Row | Molecule | binding to human CD28 stalk region peptide (in words) [1] | inhibition of CD28 shedding, PBMC activated by SEB (CD28 shedding in PBMC) | inhibition of CD28 shedding, HEK cells overexpressing human CD28 [2] | inhibition of CD28 shedding, CD4 T cells activated by PHA and IL2 [3]
1 | 4A1: VHH clone binding the stalk region of human CD28, SEQ ID NO: 35 (protein) VHH: QVQLVESGGGLVQAGGSLRLSCAASGSIFSINAMGWYRQAPGKQRERVAAITSGGSTNYADSVKGRFTISRDNAKNTVYLQMNNLEPRDAGVYYCVVDLYGEDYWIWGQGTQVTVSSAAAHHHHHH | bind specifically | – | – | –
2 | 4A4: VHH clone binding the stalk region of human CD28, SEQ ID NO: 34 (protein) VHH: EVQLVESGGGLVQAGGSLRLSCAASGSLFSINAMAWYRQAPGKQRELVAAITSSGSTNYANSVKGRFTVSRDNAKNTMYLQMNSLKPEDTAVYYCVVDEYGSDYWIWGQGTQVTVSSAAAHHHHHH | bind specifically | inhibit CD28 shedding | inhibit CD28 shedding | inhibit CD28 shedding
